Legend:
Assay in all cases: SPR (Biacore T200); Tie2-Fc captured on anti-human IgG (Fc), Fab at 50 nM; mean of 3
Human Tie2 (1-452)r2-Fc = molecular target: T1, Human Tie2 (1-452)r2-Fc (human, UniProt Q02763 23-452)
T1 construct: range 1-452
Experimental: (§1) SPR analysis was carried out in order to evaluate the binding activity of the human Tie2 (1-452)-Fc chimera protein and 23 mutant proteins thereof to the fully human 2-16A2-Fab.
(§2) For SPR analysis, Biacore T200 (GE Healthcare) was used. An anti-human IgG (Fc) antibody (Human Antibody Capture Kit, GE Healthcare) was fixed onto a CM5 sensor chip. The human Tie2 (1-452)-Fc chimeric protein and 23 mutant proteins thereof, diluted with HBS-EP (GE Healthcare) at 5 μg/mL, were each allowed for immobilization, and the capture-amount was measured. Thereafter, the fully human 2-16A2-Fab diluted with HBS-EP to 50 nM, the binding amount thereof to the human Tie2 (1-452)-Fc chimeric protein and 23 mutant proteins thereof were measured. Further, by dividing the binding amount with the capture-amount, the binding amount of the antibody in the unit immobilized antigen (hereinafter referred to as a binding ratio) was calculated. The arithmetic mean of three experiments and the relative value of the binding ratio of each mutant proteins when the binding ratio of the human Tie2 (1-452)-Fc chimeric protein was taken as 100% are shown in Table 7.

Human Tie2 (1-452)r3-Fc = molecular target: T2, Human Tie2 (1-452)r3-Fc (human, UniProt Q02763 23-452)
T2 construct: range 1-452
T2 sequence (Q02763 other isoform, or with tags, fused parts or gaps limits assumed, form in doubt): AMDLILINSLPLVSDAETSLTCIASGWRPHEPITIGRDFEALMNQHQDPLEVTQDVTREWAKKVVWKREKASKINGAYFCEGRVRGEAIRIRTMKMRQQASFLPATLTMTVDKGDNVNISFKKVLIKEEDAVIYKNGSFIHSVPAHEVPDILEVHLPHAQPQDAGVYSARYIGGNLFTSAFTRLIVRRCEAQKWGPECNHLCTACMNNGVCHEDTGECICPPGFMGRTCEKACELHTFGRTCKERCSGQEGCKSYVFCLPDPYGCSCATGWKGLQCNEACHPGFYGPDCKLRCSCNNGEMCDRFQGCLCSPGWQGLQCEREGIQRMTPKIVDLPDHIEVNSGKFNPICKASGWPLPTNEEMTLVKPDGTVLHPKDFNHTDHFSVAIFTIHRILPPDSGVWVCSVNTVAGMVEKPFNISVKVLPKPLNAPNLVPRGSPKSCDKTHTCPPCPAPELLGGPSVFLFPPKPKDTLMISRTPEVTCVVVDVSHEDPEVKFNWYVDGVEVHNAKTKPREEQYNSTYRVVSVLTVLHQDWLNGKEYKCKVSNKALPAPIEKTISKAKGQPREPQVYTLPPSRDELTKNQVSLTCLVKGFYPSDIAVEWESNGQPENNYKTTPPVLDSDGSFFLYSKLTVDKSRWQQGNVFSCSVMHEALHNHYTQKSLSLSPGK
Experimental: as §1, §2

Human Tie2 (1-452)r4-Fc = molecular target: T3, Human Tie2 (1-452)r4-Fc (human, UniProt Q02763 23-452)
T3 construct: range 1-452
Experimental: as §1, §2

Human Tie2 (1-452)r6-Fc = molecular target: T4, Human Tie2 (1-452)r6-Fc (human, UniProt Q02763 23-452)
T4 construct: range 1-452
Experimental: as §1, §2

Human Tie2 (1-452)r7-Fc = molecular target: T5, Human Tie2 (1-452)r7-Fc (human, UniProt Q02763 23-452)
T5 construct: range 1-452
T5 sequence (Q02763 other isoform, or with tags, fused parts or gaps limits assumed, form in doubt): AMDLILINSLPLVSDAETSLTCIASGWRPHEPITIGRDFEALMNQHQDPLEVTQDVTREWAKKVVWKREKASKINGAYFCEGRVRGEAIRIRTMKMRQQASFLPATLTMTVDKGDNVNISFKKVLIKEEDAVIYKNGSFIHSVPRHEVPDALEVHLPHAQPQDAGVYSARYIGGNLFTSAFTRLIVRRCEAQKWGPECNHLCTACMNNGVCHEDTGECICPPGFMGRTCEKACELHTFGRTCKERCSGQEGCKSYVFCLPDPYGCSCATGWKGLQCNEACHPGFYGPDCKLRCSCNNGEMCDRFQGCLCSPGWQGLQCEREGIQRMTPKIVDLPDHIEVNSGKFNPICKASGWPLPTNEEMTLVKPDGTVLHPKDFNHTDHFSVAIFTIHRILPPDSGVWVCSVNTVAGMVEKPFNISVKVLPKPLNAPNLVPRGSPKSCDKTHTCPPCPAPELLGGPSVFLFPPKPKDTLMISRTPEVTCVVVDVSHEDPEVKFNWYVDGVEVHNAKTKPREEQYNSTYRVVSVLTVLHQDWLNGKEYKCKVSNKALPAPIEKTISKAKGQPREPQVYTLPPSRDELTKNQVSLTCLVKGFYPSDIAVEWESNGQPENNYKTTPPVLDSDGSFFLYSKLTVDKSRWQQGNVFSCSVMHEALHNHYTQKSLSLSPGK
Experimental: as §1, §2

Human Tie2 (1-452)g1-Fc = molecular target: T6, Human Tie2 (1-452)g1-Fc (human, UniProt Q02763 23-452)
T6 construct: range 1-452
T6 sequence (Q02763 other isoform, or with tags, fused parts or gaps limits assumed, form in doubt): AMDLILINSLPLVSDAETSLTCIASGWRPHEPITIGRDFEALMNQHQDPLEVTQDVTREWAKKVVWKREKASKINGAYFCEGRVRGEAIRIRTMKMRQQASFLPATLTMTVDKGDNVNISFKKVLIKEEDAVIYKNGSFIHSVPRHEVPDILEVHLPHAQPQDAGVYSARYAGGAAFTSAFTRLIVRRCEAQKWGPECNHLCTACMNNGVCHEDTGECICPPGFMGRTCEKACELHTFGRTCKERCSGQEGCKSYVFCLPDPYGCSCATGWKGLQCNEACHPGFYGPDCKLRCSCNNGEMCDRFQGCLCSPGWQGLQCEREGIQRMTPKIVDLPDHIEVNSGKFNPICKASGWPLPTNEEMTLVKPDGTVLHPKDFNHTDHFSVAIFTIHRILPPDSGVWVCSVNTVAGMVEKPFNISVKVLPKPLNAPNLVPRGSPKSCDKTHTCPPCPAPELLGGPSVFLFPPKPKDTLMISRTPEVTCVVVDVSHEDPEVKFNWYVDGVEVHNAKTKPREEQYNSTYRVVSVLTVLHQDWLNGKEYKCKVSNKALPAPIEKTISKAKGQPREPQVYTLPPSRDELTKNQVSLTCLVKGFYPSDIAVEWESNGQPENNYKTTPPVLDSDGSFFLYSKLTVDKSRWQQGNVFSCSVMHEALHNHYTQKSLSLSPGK
Experimental: as §1, §2

Human Tie2 (1-452)g2-Fc = molecular target: T7, Human Tie2 (1-452)g2-Fc (human, UniProt Q02763 23-452)
T7 construct: range 1-452
T7 sequence (Q02763 other isoform, or with tags, fused parts or gaps limits assumed, form in doubt): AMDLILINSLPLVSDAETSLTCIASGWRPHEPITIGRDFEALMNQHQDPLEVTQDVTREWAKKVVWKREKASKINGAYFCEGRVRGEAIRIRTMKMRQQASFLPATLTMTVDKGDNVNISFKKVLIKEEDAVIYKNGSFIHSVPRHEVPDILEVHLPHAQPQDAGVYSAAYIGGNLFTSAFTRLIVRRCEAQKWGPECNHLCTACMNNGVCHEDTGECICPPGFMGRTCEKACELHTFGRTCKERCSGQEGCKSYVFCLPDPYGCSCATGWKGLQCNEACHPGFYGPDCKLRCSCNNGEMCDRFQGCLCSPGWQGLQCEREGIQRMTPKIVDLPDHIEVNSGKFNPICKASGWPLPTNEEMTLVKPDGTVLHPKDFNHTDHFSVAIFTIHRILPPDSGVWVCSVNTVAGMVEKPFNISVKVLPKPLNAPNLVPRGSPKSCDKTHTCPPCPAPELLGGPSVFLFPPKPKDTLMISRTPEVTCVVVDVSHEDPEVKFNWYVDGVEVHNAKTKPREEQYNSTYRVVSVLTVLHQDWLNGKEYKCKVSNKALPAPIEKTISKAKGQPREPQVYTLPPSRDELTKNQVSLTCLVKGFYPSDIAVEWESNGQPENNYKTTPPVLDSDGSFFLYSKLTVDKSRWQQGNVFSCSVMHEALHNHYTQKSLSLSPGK
Experimental: as §1, §2

Human Tie2 (1-452)g3-Fc = molecular target: T8, Human Tie2 (1-452)g3-Fc (human, UniProt Q02763 23-452)
T8 construct: range 1-452
Experimental: as §1, §2

Human Tie2 (1-452)g4-Fc = molecular target: T9, Human Tie2 (1-452)g4-Fc (human, UniProt Q02763 23-452)
T9 construct: range 1-452
Experimental: as §1, §2

Human Tie2 (1-452)g6-Fc = molecular target: T10, Human Tie2 (1-452)g6-Fc (human, UniProt Q02763 23-452)
T10 construct: range 1-452
Experimental: as §1, §2

Human Tie2 (1-452)m1-Fc = molecular target: T11, Human Tie2 (1-452)m1-Fc (human, UniProt Q02763 23-452)
T11 construct: range 1-452
Experimental: as §1, §2

Human Tie2 (1-452)m3-Fc = molecular target: T12, Human Tie2 (1-452)m3-Fc (human, UniProt Q02763 23-452)
T12 construct: range 1-452
Experimental: as §1, §2

Human Tie2 (1-452)y1-Fc = molecular target: T13, Human Tie2 (1-452)y1-Fc (human, UniProt Q02763 23-452)
T13 construct: range 1-452
T13 sequence (Q02763 other isoform, or with tags, fused parts or gaps limits assumed, form in doubt): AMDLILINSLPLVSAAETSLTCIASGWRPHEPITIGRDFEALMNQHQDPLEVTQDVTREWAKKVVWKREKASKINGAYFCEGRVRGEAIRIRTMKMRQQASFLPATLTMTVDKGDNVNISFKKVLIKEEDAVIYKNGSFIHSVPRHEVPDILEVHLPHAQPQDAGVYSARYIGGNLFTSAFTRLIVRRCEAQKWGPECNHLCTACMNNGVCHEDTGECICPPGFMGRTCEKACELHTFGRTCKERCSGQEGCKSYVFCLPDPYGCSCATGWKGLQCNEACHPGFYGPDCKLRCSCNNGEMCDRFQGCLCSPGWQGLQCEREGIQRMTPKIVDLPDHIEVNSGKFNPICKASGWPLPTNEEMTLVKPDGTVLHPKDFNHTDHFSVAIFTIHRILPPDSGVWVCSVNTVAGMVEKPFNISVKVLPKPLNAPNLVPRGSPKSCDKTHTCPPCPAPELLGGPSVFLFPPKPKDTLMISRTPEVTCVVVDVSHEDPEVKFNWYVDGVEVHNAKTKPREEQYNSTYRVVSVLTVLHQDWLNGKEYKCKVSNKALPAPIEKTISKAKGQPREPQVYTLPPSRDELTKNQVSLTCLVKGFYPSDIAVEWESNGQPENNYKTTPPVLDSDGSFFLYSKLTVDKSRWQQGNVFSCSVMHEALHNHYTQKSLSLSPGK
Experimental: as §1, §2

Human Tie2 (1-452)c1-Fc = molecular target: T14, Human Tie2 (1-452)c1-Fc (human, UniProt Q02763 23-452)
T14 construct: range 1-452
Experimental: as §1, §2

Human Tie2 (1-452)A2-Fc = molecular target: T15, Human Tie2 (1-452)A2-Fc (human, UniProt Q02763 23-452)
T15 construct: range 1-452
T15 sequence (Q02763 other isoform, or with tags, fused parts or gaps limits assumed, form in doubt): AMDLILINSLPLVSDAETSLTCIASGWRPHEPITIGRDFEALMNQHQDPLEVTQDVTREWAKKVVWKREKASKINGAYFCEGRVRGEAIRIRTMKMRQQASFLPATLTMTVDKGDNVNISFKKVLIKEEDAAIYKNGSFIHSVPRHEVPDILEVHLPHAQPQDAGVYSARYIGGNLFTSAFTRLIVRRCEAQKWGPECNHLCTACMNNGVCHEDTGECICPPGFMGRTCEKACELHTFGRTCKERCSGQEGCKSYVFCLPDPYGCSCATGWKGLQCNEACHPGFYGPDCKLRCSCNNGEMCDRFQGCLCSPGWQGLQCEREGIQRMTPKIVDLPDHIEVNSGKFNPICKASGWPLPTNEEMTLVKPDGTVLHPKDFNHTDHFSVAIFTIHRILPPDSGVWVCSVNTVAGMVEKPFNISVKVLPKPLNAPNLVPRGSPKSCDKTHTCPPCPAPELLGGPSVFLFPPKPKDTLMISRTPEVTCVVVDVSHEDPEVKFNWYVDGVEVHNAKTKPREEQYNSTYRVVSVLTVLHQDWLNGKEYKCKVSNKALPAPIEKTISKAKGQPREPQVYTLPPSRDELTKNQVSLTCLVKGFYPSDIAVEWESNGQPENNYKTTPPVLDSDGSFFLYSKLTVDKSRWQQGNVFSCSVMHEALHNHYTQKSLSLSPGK
Experimental: as §1, §2

Human Tie2 (1-452)A3-Fc = molecular target: T16, Human Tie2 (1-452)A3-Fc (human, UniProt Q02763 23-452)
T16 construct: range 1-452
Experimental: as §1, §2

Human Tie2 (1-452)A6-Fc = molecular target: T17, Human Tie2 (1-452)A6-Fc (human, UniProt Q02763 23-452)
T17 construct: range 1-452
Experimental: as §1, §2

Human Tie2 (1-452)r1-Fc = molecular target: T18, Human Tie2 (1-452)r1-Fc (human, UniProt Q02763 23-452)
T18 construct: range 1-452
T18 sequence (Q02763 other isoform, or with tags, fused parts or gaps limits assumed, form in doubt): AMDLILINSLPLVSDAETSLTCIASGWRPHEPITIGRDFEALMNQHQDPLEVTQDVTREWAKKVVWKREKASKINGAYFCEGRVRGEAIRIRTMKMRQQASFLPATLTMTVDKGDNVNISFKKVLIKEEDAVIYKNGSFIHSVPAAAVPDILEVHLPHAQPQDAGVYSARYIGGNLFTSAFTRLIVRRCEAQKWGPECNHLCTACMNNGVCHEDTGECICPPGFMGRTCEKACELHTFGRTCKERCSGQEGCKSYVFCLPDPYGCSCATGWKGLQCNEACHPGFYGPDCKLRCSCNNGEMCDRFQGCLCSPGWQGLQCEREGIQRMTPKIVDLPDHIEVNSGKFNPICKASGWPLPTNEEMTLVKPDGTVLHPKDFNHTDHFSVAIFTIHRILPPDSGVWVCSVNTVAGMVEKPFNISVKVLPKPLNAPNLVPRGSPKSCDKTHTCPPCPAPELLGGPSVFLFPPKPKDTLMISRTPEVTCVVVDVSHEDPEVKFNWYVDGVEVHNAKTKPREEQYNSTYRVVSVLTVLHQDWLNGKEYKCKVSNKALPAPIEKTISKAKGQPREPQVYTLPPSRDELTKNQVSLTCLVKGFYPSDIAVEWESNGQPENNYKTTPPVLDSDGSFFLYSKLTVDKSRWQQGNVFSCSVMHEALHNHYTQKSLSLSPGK
Experimental: as §1, §2

B1: fully human 2-16A2-Fab (Fab, V domains shown)
VH: EVQLVESGGGLVQPGGSLRLSCAASGFTFDDYAMHWVRQAPGKGLEWVAGISWNSGSIVYADSVKGRFTISRDNSKNTLYLQMNSLRAEDTAVYYCAKDIREQLVEDAFDIWGQGTLVTVSS
VL: DIQMTQSPSSLSASVGDRVTITCRSSQSLLHSHRYNYLDWYQQKPGKAPKLLIYLGSNRASGVPSRFSGSGSGTDFTLTISSVQPEDFATYYCMQTLQTPLTFGQGTKVEIKR
notes: also called Fab of the fully human 2-16A2
With B1 the Binding ratio (Human Tie2 (1-452)r2-Fc) was 0.28, the “Relative value (%) of binding ratio (human Tie2 (1-452)-Fc chimeric protein = 100%)” value (shortened to “Relative value (%) of binding ratio”) (Human Tie2 (1-452)r2-Fc) was 98% and the Binding ratio (Human Tie2 (1-452)r3-Fc) was 0.34. For the same binder, the “Relative value (%) of binding ratio” value (Human Tie2 (1-452)r3-Fc) was 119%, the Binding ratio (Human Tie2 (1-452)r4-Fc) was 0.33 and the “Relative value (%) of binding ratio” value (Human Tie2 (1-452)r4-Fc) was 113%. For the same binder, the Binding ratio (Human Tie2 (1-452)r6-Fc) was 0.29, the “Relative value (%) of binding ratio” value (Human Tie2 (1-452)r6-Fc) was 100% and the Binding ratio (Human Tie2 (1-452)r7-Fc) was 0.3. For the same binder, the “Relative value (%) of binding ratio” value (Human Tie2 (1-452)r7-Fc) was 106%, the Binding ratio (Human Tie2 (1-452)g1-Fc) was 0 and the “Relative value (%) of binding ratio” value (Human Tie2 (1-452)g1-Fc) was 0%. For the same binder, the Binding ratio (Human Tie2 (1-452)g2-Fc) was 0.03, the “Relative value (%) of binding ratio” value (Human Tie2 (1-452)g2-Fc) was 9% and the Binding ratio (Human Tie2 (1-452)g3-Fc) was 0.06. For the same binder, the “Relative value (%) of binding ratio” value (Human Tie2 (1-452)g3-Fc) was 23%, the Binding ratio (Human Tie2 (1-452)g4-Fc) was 0.02 and the “Relative value (%) of binding ratio” value (Human Tie2 (1-452)g4-Fc) was 7%. For the same binder, the Binding ratio (Human Tie2 (1-452)g6-Fc) was 0.38, the “Relative value (%) of binding ratio” value (Human Tie2 (1-452)g6-Fc) was 131% and the Binding ratio (Human Tie2 (1-452)m1-Fc) was 0.31. For the same binder, the “Relative value (%) of binding ratio” value (Human Tie2 (1-452)m1-Fc) was 107%, the Binding ratio (Human Tie2 (1-452)m3-Fc) was 0.04 and the “Relative value (%) of binding ratio” value (Human Tie2 (1-452)m3-Fc) was 12%. The Binding ratio (Human Tie2 (1-452)y1-Fc) was 0.25, the “Relative value (%) of binding ratio” value (Human Tie2 (1-452)y1-Fc) was 87% and the Binding ratio (Human Tie2 (1-452)c1-Fc) was 0.54. The “Relative value (%) of binding ratio” value (Human Tie2 (1-452)c1-Fc) was 189%, the Binding ratio (Human Tie2 (1-452)A2-Fc) was 0.08 and the “Relative value (%) of binding ratio” value (Human Tie2 (1-452)A2-Fc) was 29%. For the same binder, the Binding ratio (Human Tie2 (1-452)A3-Fc) was 0.17, the “Relative value (%) of binding ratio” value (Human Tie2 (1-452)A3-Fc) was 59% and the Binding ratio (Human Tie2 (1-452)A6-Fc) was 0.31. The “Relative value (%) of binding ratio” value (Human Tie2 (1-452)A6-Fc) was 109%, the Binding ratio (Human Tie2 (1-452)r1-Fc) was 0.29 and the “Relative value (%) of binding ratio” value (Human Tie2 (1-452)r1-Fc) was 102%.

Reference: patent publication US20160222130A1 (Astellas, published 2016)
